We go through 167 variants from the RNAGym collection of RNA variant scans (doi:10.7554/elife.90254).

B1: LINE1-mini (parent)
chain: GGCAGAGCUCAACACAGCGUGGCAAAGUGGCUGUGGCUAGACUGCC

The data set covers variants of B1. Description: self-cleavage, relative activity (ratio to wild type); higher = more cleavage; in vitro, sequencing; the parent is a self-cleaving ribozyme.
As to G22C C46A, the self-cleavage stood at 0.61.

As for G22C C46G, the self-cleavage is 0.13.

With G22C C46U, the self-cleavage came to 0.65.

Take G22A G33U: the self-cleavage is 0.22.

For the variant G22A G33C, the self-cleavage was found to be 0.05.

On to G22A G33A, for which the self-cleavage worked out at 0.52.

Consider G21U G40U, for which the self-cleavage was 0.18.

Regarding G21U G40A, the self-cleavage amounted to 0.29.

Take G21U G40C: the self-cleavage is 0.11.

Regarding G22A U38A, the self-cleavage stood at 0.33.

Take G22A U38C: the self-cleavage is 0.68.

Consider G22A U38G, for which the self-cleavage was 0.01.

On to G22C C45G, for which the self-cleavage stood at 0.17.

Turning to G22C C45U, the self-cleavage stood at 1.21.

Regarding G22C C45A, the self-cleavage was determined as 0.39.

G22C G33A: the self-cleavage is 0.07.

For the variant G22C G33C, the self-cleavage was 0.06.

Consider G22C G33U, for which the self-cleavage is 0.06.

Turning to G21U G36C, the self-cleavage was found to be 0.1.

As for G21U G36A, the self-cleavage was 0.27.

Take G21U G36U: the self-cleavage stood at 0.12.

For G22A G36U, the self-cleavage came out at 0.15.

For the variant G22A G36A, the self-cleavage amounted to 0.1.

As to G22A G36C, the self-cleavage stood at 0.13.

Turning to G22C G44C, the self-cleavage turned out to be 0.41.

Take G22C G44A: the self-cleavage stood at 0.13.

Turning to G22C G44U, the self-cleavage is 0.4.

With G22A A39G, the self-cleavage came out at 0.17.

Turning to G22A A39U, the self-cleavage was determined as 0.5.

As to G22A A39C, the self-cleavage came out at 0.09.

Consider G22A A24U, for which the self-cleavage was determined as 0.75.

Turning to G22A A24G, the self-cleavage was 1.53.

On to G22A A24C, for which the self-cleavage came out at 0.48.

In the case of G22C C37A, the self-cleavage was found to be 0.09.

Turning to G22C C37U, the self-cleavage was found to be 0.02.

For the variant G22C C37G, the self-cleavage is 0.05.

In the case of G22C A39U, the self-cleavage was 0.55.

On to G22C A39C, for which the self-cleavage was 0.19.

As for G22C A39G, the self-cleavage is 0.09.

With G22A A25U, the self-cleavage was found to be 1.38.

G22A A25C: the self-cleavage stood at 0.8.

In the case of G22A A25G, the self-cleavage is 1.23.

Consider G21U G35U, for which the self-cleavage came out at 0.22.

As for G21U G35C, the self-cleavage was determined as 0.13.

Regarding G21U G35A, the self-cleavage is 0.16.

For the variant G22A G27U, the self-cleavage worked out at 0.75.

As for G22A G27C, the self-cleavage amounted to 0.9.

For G22A G27A, the self-cleavage amounted to 0.51.

Turning to G22C G29U, the self-cleavage is 0.38.

Consider G22C G29A, for which the self-cleavage amounted to 1.19.

Consider G22C G29C, for which the self-cleavage stood at 0.27.

As for G22A C37A, the self-cleavage is 0.04.

In the case of G22A C37U, the self-cleavage amounted to 0.05.

G22A C37G: the self-cleavage came out at 0.03.

Regarding G22A C46A, the self-cleavage stood at 1.03.

With G22A C46G, the self-cleavage came to 1.22.

G22A C46U: the self-cleavage turned out to be 0.84.

As to G22C U34C, the self-cleavage was 0.17.

G22C U34G: the self-cleavage was 0.17.

Regarding G22C U34A, the self-cleavage was determined as 0.09.

On to G22C A25G, for which the self-cleavage amounted to 1.07.

For the variant G22C A25U, the self-cleavage amounted to 1.23.

In the case of G22C A25C, the self-cleavage came to 0.31.

On to G21U U32G, for which the self-cleavage stood at 0.26.

G21U U32A: the self-cleavage was determined as 0.12.

For the variant G21U U32C, the self-cleavage was 0.68.

Turning to G22A U43A, the self-cleavage is 0.06.

Regarding G22A U43C, the self-cleavage was found to be 0.07.

On to G22A U43G, for which the self-cleavage amounted to 0.

On to G21U U38A, for which the self-cleavage is 0.42.

As to G21U U38G, the self-cleavage stood at 0.04.

Take G21U U38C: the self-cleavage was determined as 0.9.

With G21U U43G, the self-cleavage came out at 0.07.

For G21U U43C, the self-cleavage was found to be 0.2.

With G21U U43A, the self-cleavage was 0.08.

For the variant G21U G33U, the self-cleavage was determined as 0.17.

Take G22A C42G: the self-cleavage stood at 0.03.

Regarding G22A C42U, the self-cleavage was 0.7.

On to G22A C42A, for which the self-cleavage is 0.35.

In the case of G22A U32C, the self-cleavage was 1.4.

As for G22A U32A, the self-cleavage came to 0.07.

For the variant G22A U32G, the self-cleavage is 0.14.

Consider G22C G30C, for which the self-cleavage stood at 1.94.

Regarding G22C G30A, the self-cleavage was determined as 0.76.

In the case of G22C G30U, the self-cleavage turned out to be 0.53.

Turning to G22C G36U, the self-cleavage turned out to be 0.1.

On to G22C G36A, for which the self-cleavage was found to be 0.05.

In the case of G22C G36C, the self-cleavage was determined as 0.25.

For the variant G22C C31G, the self-cleavage was found to be 0.08.

G22C C31A: the self-cleavage was found to be 0.14.

Consider G22C C31U, for which the self-cleavage turned out to be 0.26.

Consider G22A U28C, for which the self-cleavage came to 0.51.

G22A U28A: the self-cleavage was found to be 0.4.

On to G22A U28G, for which the self-cleavage came out at 0.67.

As for G22C A41G, the self-cleavage stood at 0.23.

As for G22C A41C, the self-cleavage was determined as 0.05.

With G22C A41U, the self-cleavage amounted to 0.72.

Regarding G22C C42U, the self-cleavage is 0.21.

As for G22C C42A, the self-cleavage amounted to 0.13.

Take G22C C42G: the self-cleavage came out at 0.03.

In the case of G22C G40C, the self-cleavage amounted to 0.08.

On to G22C G40A, for which the self-cleavage was 0.09.

For G22C G40U, the self-cleavage was 0.14.

In the case of G22A C45U, the self-cleavage came out at 1.44.

Consider G22A C45A, for which the self-cleavage came out at 0.67.

On to G22A C45G, for which the self-cleavage stood at 0.32.

For G22A, the self-cleavage came out at 0.81.

With G22C, the self-cleavage came to 0.78.

For the variant G22C C23A, the self-cleavage was 0.92.

As for G22C C23U, the self-cleavage amounted to 0.64.

With G22C C23G, the self-cleavage was 0.28.

Regarding G22A U34C, the self-cleavage is 0.87.

Take G22A U34G: the self-cleavage came out at 0.51.

As to G22A U34A, the self-cleavage came to 0.2.

On to G22A G35U, for which the self-cleavage turned out to be 0.14.

Turning to G22A G35A, the self-cleavage was determined as 0.23.

In the case of G22A G35C, the self-cleavage turned out to be 0.12.

As to G22A C31A, the self-cleavage came to 0.2.

Consider G22A C31G, for which the self-cleavage came to 0.1.

As for G22A C31U, the self-cleavage came out at 0.49.

With G22A G29U, the self-cleavage stood at 0.65.

Take G22A G29C: the self-cleavage was determined as 0.21.

As to G22A G29A, the self-cleavage worked out at 0.27.

For G22A A41G, the self-cleavage came out at 0.31.

G22A A41U: the self-cleavage turned out to be 0.66.

For G22A A41C, the self-cleavage was 0.09.

Take G21U U28C: the self-cleavage was found to be 0.92.

Take G21U U28G: the self-cleavage is 0.52.

In the case of G21U U28A, the self-cleavage is 0.51.

Regarding G21U U34G, the self-cleavage turned out to be 0.34.

Consider G21U U34C, for which the self-cleavage amounted to 0.27.

Take G21U U34A: the self-cleavage was determined as 0.12.

Take G22A G44C: the self-cleavage came out at 0.23.

Consider G22A G44U, for which the self-cleavage amounted to 0.34.

Turning to G22A G44A, the self-cleavage was 0.97.

For G22C G35A, the self-cleavage came to 0.14.

For the variant G22C G35C, the self-cleavage turned out to be 0.08.

For the variant G22C G35U, the self-cleavage was 0.15.

As for G22C G27C, the self-cleavage is 0.44.

Consider G22C G27A, for which the self-cleavage worked out at 0.75.

With G22C G27U, the self-cleavage worked out at 0.53.

For the variant G22A G30A, the self-cleavage stood at 1.24.

For the variant G22A G30U, the self-cleavage was determined as 0.96.

Take G22C U28C: the self-cleavage was found to be 0.5.

Consider G22C U28A, for which the self-cleavage is 0.44.

On to G22C U28G, for which the self-cleavage was 0.43.

As to G22C A26C, the self-cleavage was found to be 2.46.

Regarding G22C A26U, the self-cleavage stood at 0.82.

As for G22C A26G, the self-cleavage was 0.87.

Turning to G21U G44C, the self-cleavage worked out at 0.25.

With G21U G44U, the self-cleavage is 0.5.

As for G21U G44A, the self-cleavage is 0.53.

For the variant G22A A26G, the self-cleavage came out at 1.31.

On to G22A A26C, for which the self-cleavage came to 0.79.

G22A A26U: the self-cleavage was 0.76.

As for G22A G40U, the self-cleavage was 0.12.

As for G22A G40A, the self-cleavage worked out at 0.08.

On to G22A G40C, for which the self-cleavage amounted to 0.09.

Regarding G22A C23U, the self-cleavage was determined as 1.14.

As to G22A C23A, the self-cleavage stood at 0.42.

On to G22A C23G, for which the self-cleavage is 0.47.

For G22C A24U, the self-cleavage was 0.52.

With G22C A24G, the self-cleavage stood at 0.74.

As for G22C A24C, the self-cleavage came to 0.85.

As to G22C U32A, the self-cleavage was determined as 0.04.

For G22C U32G, the self-cleavage was 0.2.

For the variant G22C U32C, the self-cleavage amounted to 0.11.
